Substitutions are numbered along the chain they refer to. Names and notes keep the numbering of the source. Each block holds one molecule with its values, some of them ahead of it.
How the values were obtained:
HEK 293T cells = assay: hDHFR regulated CD40L surface expression, HEK 293T cells (flow cytometry); type: cell-based, human; conditions: 50 μM TMP 24 hours
Procedure: HEK 293T cells were transiently […] with hDHFR regulated constructs namely OT-001962, OT-001961, OT-001963 for 24 hours. Following transfection, cells were treated with 50 μM TMP for 24 hours and CD40L cell surface expression was measured using flow cytometry. […] CD40L expression in the absence of ligand was virtually undetectable.

Jurkat cells = assay: DHFR regulated CD40L expression, transduced Jurkat cells (flow cytometry); type: cell-based; conditions: for SR: TMP (50 μM) versus Vehicle
Procedure: Jurkat cells were transduced with lentiviruses corresponding to OT-001662, OT-001962, OT-001961, OT-001963. 24 hours after transduction, cells were split and treated with DMSO or 50 μM TMP for another 24 hours until flow cytometry-based analysis. The results are shown in Table 37 where SR indicates stabilization ration.

[1] = system: T cells (CD4 and CD8 positive); assay: TMP dose response of OT-001962, CD40L MFI in CD4 and CD8 positive T cells; type: cell-based
Procedure: Dose response with TMP in T cells were conducted for OT-001962. Expression of CD40L was measured at (a) day 4 after transduction, (b) after freezing and thawing the cells or (c) after freezing and thawing the cells followed by restimulation with CD3/CD28 beads.

T cells (CD4+ and CD8+) = assay: Regulation of CD40L in T cells by different drug responsive domains; type: cell-based
CD40 = CD40 (UniProt P25942); assay: cell-based or functional assay
HEK-Blue™ CD40 cells = assay: HEK-Blue CD40 SEAP reporter co-culture with transduced Jurkat cells; type: cell-based; conditions: ligand 24 h (1 μM Shield-1, 50 μM TMP or 1 μM Bazedoxifene), recombinant soluble CD40L as standard
Procedure: Jurkat cells transduced with OT-001661, OT-001685, OT-001662, OT-001666, or OT-001667 were co-cultured with HEK-Blue™ CD40 cells (Invivogen, San Diego, Calif.). Cocultures were treated with ligands (1 μM Shield-1, 50 μM TMP, 1 μM Bazedoxifene (BZD) or vehicle control) for 24 hours and the secreted embryonic alkaline phosphatase (SEAP) reporter levels were measured in the media. All vehicle treated samples had background SEAP activity. Recombinant soluble CD40L was used as the standard in the experiments.

CD40, sequence (P25942 21-277 limits assumed): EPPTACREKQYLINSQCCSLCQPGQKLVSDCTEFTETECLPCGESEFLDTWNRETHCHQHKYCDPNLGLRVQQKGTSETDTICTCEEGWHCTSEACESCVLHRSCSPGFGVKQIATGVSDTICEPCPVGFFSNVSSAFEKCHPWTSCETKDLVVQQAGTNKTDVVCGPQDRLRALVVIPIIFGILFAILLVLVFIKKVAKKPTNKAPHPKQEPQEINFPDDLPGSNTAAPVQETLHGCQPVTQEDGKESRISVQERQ

B1: OT-001962: hDHFR regulated CD40L construct (protein)
chain: MVGSLNCIVAVSQNMGIGKNGDLPWPPLRNEFRYFERMTTTSSVEGKQNLVIMGKKTWFSIPEKNRPLKGRINLVLSRELKEPPQGAHFLSRSLDDALKLTEHPELANKVDMVWIVGGSSVIKEAMNHPGHLKLFVTRIMQDFESDTFFPEIDLEKYKLLPEYPGVLSDVQEEKGIKYKFEVYEKNDHMIETYNQTSPRSAATGLPISMKIFMYLLTVFLITQMIGSALFAVYLHRRLDKIEDERNLHEDFVFMKTIQRCNTGERSLSLLNCEEIKSQFEGFVKDIMLNKEETKKENSFEMQKGDQNPQIAAHVISEASSKTTSVLQWAEKGYYTMSNNLVTLENGKQLTVKRQGLYYIYAQVTFCSNREASSQAPFIASLCLKSPGRFERILLRAANTHSSAKPCGQQSIHLGGVFELQPGASVFVNVTDPSQVSHGTGFTSFGLLKL
- % CD40L (HEK 293T cells): 14.3%
- stabilization ratio, ranking among the hDHFR constructs (Jurkat cells; 50 μM TMP versus DMSO): highest stabilization ratio
- TMP dependent regulation (Jurkat cells; 50 μM TMP versus DMSO 24 hours): strong TMP dependent regulation
- % CD40L expression (Jurkat cells; TMP (50 μM)): 50%
- SR (Jurkat cells): 16.7
- % CD40L expression (Jurkat cells; Vehicle (DMSO)): 3%
- CD40L expression (MFI) ([1]; CD4+, Day 4, TMP 0.1 nM): 388
- CD40L expression (MFI) ([1]; CD4+, Day 4, TMP 1 nM): 396
- CD40L expression (MFI) ([1]; CD4+, Day 4, TMP 10 nM): 405
- CD40L expression (MFI) ([1]; CD4+, Day 4, TMP 100 nM): 388
- CD40L expression (MFI) ([1]; CD4+, Day 4, TMP 1000 nM): 480
- CD40L expression (MFI) ([1]; CD4+, Day 4, TMP 10000 nM): 1067
- CD40L expression (MFI) ([1]; CD4+, Day 4, TMP 100000 nM): 5917
- CD40L expression (MFI) ([1]; CD4+, Post Thaw, TMP 0.1 nM): 153
- CD40L expression (MFI) ([1]; CD4+, Post Thaw, TMP 1 nM): 156
- CD40L expression (MFI) ([1]; CD4+, Post Thaw, TMP 10 nM): 158
- CD40L expression (MFI) ([1]; CD4+, Post Thaw, TMP 100 nM): 165
- CD40L expression (MFI) ([1]; CD4+, Post Thaw, TMP 1000 nM): 166
- CD40L expression (MFI) ([1]; CD4+, Post Thaw, TMP 10000 nM): 186
- CD40L expression (MFI) ([1]; CD4+, Post Thaw, TMP 100000 nM): 395
- CD40L expression (MFI) ([1]; CD4+, Restim, TMP 0.1 nM): 631
- CD40L expression (MFI) ([1]; CD4+, Restim, TMP 1 nM): 647
- CD40L expression (MFI) ([1]; CD4+, Restim, TMP 10 nM): 645
- CD40L expression (MFI) ([1]; CD4+, Restim, TMP 100 nM): 644
- CD40L expression (MFI) ([1]; CD4+, Restim, TMP 1000 nM): 737
- CD40L expression (MFI) ([1]; CD4+, Restim, TMP 10000 nM): 1382
- CD40L expression (MFI) ([1]; CD4+, Restim, TMP 100000 nM): 6275
- CD40L expression (MFI) ([1]; CD8+, Day 4, TMP 0.1 nM): 181
- CD40L expression (MFI) ([1]; CD8+, Day 4, TMP 1 nM): 178
- CD40L expression (MFI) ([1]; CD8+, Day 4, TMP 10 nM): 182
- CD40L expression (MFI) ([1]; CD8+, Day 4, TMP 100 nM): 182
- CD40L expression (MFI) ([1]; CD8+, Day 4, TMP 1000 nM): 204
- CD40L expression (MFI) ([1]; CD8+, Day 4, TMP 10000 nM): 393
- CD40L expression (MFI) ([1]; CD8+, Day 4, TMP 100000 nM): 1941
- CD40L expression (MFI) ([1]; CD8+, Post Thaw, TMP 0.1 nM): 111
- CD40L expression (MFI) ([1]; CD8+, Post Thaw, TMP 1 nM): 116
- CD40L expression (MFI) ([1]; CD8+, Post Thaw, TMP 10 nM): 114
- CD40L expression (MFI) ([1]; CD8+, Post Thaw, TMP 100 nM): 117
- CD40L expression (MFI) ([1]; CD8+, Post Thaw, TMP 1000 nM): 118
- CD40L expression (MFI) ([1]; CD8+, Post Thaw, TMP 10000 nM): 129
- CD40L expression (MFI) ([1]; CD8+, Post Thaw, TMP 100000 nM): 236
- CD40L expression (MFI) ([1]; CD8+, Restim, TMP 0.1 nM): 254
- CD40L expression (MFI) ([1]; CD8+, Restim, TMP 1 nM): 257
- CD40L expression (MFI) ([1]; CD8+, Restim, TMP 10 nM): 258
- CD40L expression (MFI) ([1]; CD8+, Restim, TMP 100 nM): 255
- CD40L expression (MFI) ([1]; CD8+, Restim, TMP 1000 nM): 258
- CD40L expression (MFI) ([1]; CD8+, Restim, TMP 10000 nM): 382
- CD40L expression (MFI) ([1]; CD8+, Restim, TMP 100000 nM): 1185
- CD40L positive (T cells (CD4+ and CD8+); All Cells, 100 uM TMP): 71.6%
- MFI (T cells (CD4+ and CD8+); All Cells, 100 uM TMP): 1109
- CD40L positive (T cells (CD4+ and CD8+); All Cells, DMSO): 46.5%
- MFI (T cells (CD4+ and CD8+); All Cells, DMSO): 434
- CD40L positive (T cells (CD4+ and CD8+); CD4+, 100 uM TMP): 83.5%
- MFI (T cells (CD4+ and CD8+); CD4+, 100 uM TMP): 1468
- CD40L positive (T cells (CD4+ and CD8+); CD4+, DMSO): 58.3%
- MFI (T cells (CD4+ and CD8+); CD4+, DMSO): 548
- CD40L positive (T cells (CD4+ and CD8+); CD8+, 100 uM TMP): 32.1%
- MFI (T cells (CD4+ and CD8+); CD8+, 100 uM TMP): 455
- CD40L positive (T cells (CD4+ and CD8+); CD8+, DMSO): 4.1%
- MFI (T cells (CD4+ and CD8+); CD8+, DMSO): 157

B2: OT-001963: hDHFR regulated CD40L construct (protein)
chain: B1 chain with E36Q, K55R, N65K, H103Q
- % CD40L (HEK 293T cells): 13.3%
- % CD40L expression (Jurkat cells; TMP (50 μM)): 20%
- SR (Jurkat cells): 10
- % CD40L expression (Jurkat cells; Vehicle (DMSO)): 2%

B3: OT-001961: hDHFR regulated CD40L construct (protein)
chain: B1 chain with E36Q, H103Q
- % CD40L (HEK 293T cells): 14.6%
- % CD40L expression (Jurkat cells; TMP (50 μM)): 3.5%
- SR (Jurkat cells): 1.8
- % CD40L expression (Jurkat cells; Vehicle (DMSO)): 2%

- SEAP reporter of HEK-Blue CD40 cells co-cultured 24 hours with transduced Jurkat cells plus 1 µM Bazedoxifene, given as Soluble CD40L (pg/ml) against a recombinant soluble CD40L standard (CD40): 2570 pg/mL
B4: OT-001667 (Met; ER (aa 305-549 of WT, T371A, L384M, M421G, N519S, G521R, Y537S); Histidine; CD40L; stop) (ligand)
chain: MSLALSLTADQMVSALLDAEPPILYSEYDPTRPFSEASMMGLLTNLADRELVHMINWAKRVPGFVDLALHDQVHLLECAWMEILMIGLVWRSMEHPGKLLFAPNLLLDRNQGKCVEGGVEIFDMLLATSSRFRMMNLQGEEFVCLKSIILLNSGVYTFLSSTLKSLEEKDHIHRVLDKITDTLIHLMAKAGLTLQQQHQRLAQLLLILSHIRHMSSKRMEHLYSMKCKNVVPLSDLLLEMLDAHRLHMIETYNQTSPRSAATGLPISMKIFMYLLTVFLITQMIGSALFAVYLHRRLDKIEDERNLHEDFVFMKTIQRCNTGERSLSLLNCEEIKSQFEGFVKDIMLNKEETKKENSFEMQKGDQNPQIAAHVISEASSKTTSVLQWAEKGYYTMSNNLVTLENGKQLTVKRQGLYYIYAQVTFCSNREASSQAPFIASLCLKSPGRFERILLRAANTHSSAKPCGQQSIHLGGVFELQPGASVFVNVTDPSQVSHGTGFTSFGLLKL
- Soluble CD40L (HEK-Blue™ CD40 cells): 2565.91 pg/mL

Reference: patent US20220175781A1, “CD40L COMPOSITIONS AND METHODS FOR TUNABLE REGULATION” (Obsidian Therapeutics, Inc., priority 2019, published 2022)
